Data taken from US20240318157A1, “Neurotensin Variants And Tagged Proteins Comprising Neurotensin Or Sortilin Propeptide” (Amicus Therapeutics, Inc., priority 2021, published 2024).

Biological target: T1, extracellular soluble domain of sortilin, residues 78-755 (Homo sapiens, UniProt Q99523)
T1 construct: the extracellular soluble domain of sortilin, residues 78-755, was expressed in Expi293F cell line; made in house; host or cells: Expi293F
Test: microplate binding assay, enzymic activity of sortilin-bound GAA tagged protein
Description: FIG. 2. α-D-glucopyranoside activity of sortilin-bound GAA tagged protein. Extracellular soluble sortilin domain with a C-terminal TwinStrep tag for immobilized on a 96-well microplate. […] A fluorogenic 4-methylumbelliferyl-α-D-glucopyranoside substrate was used to measure α-D-glucopyranoside activity of the sortilin-bound tagged proteins.
For a microplate binding assay, the extracellular soluble domain of sortilin, residues 78-755, was expressed in Expi293F cell line (using Expi293 Expression System; Thermo Fisher, A14635) with a C-terminal TwinStrep affinity tag. Harvests were collected after 5 days. Conditioned media was incubated with StrepTactin XT coated microplates (IBA, 2-4101-001) for 1 hour to immobilize sortilin to the plates. After several washes, wells coated with sortilin were incubated with varying doses of NT-GAA, GAA-NT or GAA diluted into PBS for 30 minutes. The unbound protein was then washed away. The α-D-glucopyranoside activity of the bound GAA tagged protein was measured using a fluorogenic substrate, 4-methylumbelliferyl-α-D-glucopyranoside, at pH 4.8. […] The inflection point in both binding curves indicates bivalency of sortilin for neurotensin.

GAA: GAA with no NT tag; lysosomal alpha-glucosidase (RefSeq: NM_000152.5) [reference compound]
α-D-glucopyranoside activity of sortilin-bound protein (immobilized sortilin, 30 minutes in PBS, 4-methylumbelliferyl-α-D-glucopyranoside, pH 4.8, FIG. 2): no α-D-glucopyranoside activity | binding to sortilin (inferred from absence of activity in sortilin-coated wells, FIG. 2): did not bind to sortilin
